According to article PMC6163367:

How the values were obtained:
[1] = target: integrin αvβ3 (mouse (endogenous in mouse synovial cells)) (UniProt P43406); experiment: flow cytometry on cells; mouse synovial cells blocked with 1% BSA, incubated with 1, 10 or 75 uM HM-3-Fc for 1 h at 4 °C, no blocking antibody; FITC-protein A as probe for the Fc part
[2] = target: integrin α5β1 (mouse (endogenous in mouse synovial cells)) (UniProt P11688); experiment: as above
[3] = target: integrin αvβ3 (mouse (endogenous in mouse synovial cells)) (UniProt P43406); experiment: flow cytometry on cells; mouse synovial cells first incubated with anti-αvβ3, anti-α5β1 or both blocking antibodies for half an hour at 4 °C, washed, then 75 uM HM-3-Fc for 1 h at 4 °C; FITC-protein A as probe
[4] = target: integrin α5β1 (mouse (endogenous in mouse synovial cells)) (UniProt P11688); experiment: as above

UniProt P43406, sequence (P43406 31-1044, chain 1 of 2): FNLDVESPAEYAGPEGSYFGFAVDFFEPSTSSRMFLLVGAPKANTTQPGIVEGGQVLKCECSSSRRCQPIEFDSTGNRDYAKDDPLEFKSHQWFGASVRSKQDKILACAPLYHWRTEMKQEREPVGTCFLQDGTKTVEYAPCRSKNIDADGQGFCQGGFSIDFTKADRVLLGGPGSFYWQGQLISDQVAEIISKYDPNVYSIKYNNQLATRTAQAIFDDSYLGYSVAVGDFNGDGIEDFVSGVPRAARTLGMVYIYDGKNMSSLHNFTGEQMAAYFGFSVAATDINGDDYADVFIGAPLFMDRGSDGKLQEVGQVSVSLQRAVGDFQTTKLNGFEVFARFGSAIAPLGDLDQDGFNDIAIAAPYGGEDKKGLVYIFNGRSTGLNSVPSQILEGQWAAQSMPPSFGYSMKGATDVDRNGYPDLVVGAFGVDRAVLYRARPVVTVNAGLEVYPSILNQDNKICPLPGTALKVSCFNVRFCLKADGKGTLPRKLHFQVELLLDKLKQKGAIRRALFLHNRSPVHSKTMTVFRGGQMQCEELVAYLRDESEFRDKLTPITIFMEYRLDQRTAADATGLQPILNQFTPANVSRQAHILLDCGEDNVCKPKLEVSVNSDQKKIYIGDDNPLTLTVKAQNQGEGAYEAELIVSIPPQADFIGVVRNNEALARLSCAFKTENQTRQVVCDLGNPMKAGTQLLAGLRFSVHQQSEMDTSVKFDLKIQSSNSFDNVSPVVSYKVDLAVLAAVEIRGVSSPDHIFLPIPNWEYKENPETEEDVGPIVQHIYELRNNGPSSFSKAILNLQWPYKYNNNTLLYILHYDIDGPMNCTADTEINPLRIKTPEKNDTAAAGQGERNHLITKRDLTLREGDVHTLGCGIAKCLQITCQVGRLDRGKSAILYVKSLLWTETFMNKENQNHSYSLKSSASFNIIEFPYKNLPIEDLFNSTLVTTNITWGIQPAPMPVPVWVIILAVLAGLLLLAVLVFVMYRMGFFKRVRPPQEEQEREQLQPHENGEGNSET
UniProt P43406, sequence (O54890 26-787, chain 2 of 2, further chain): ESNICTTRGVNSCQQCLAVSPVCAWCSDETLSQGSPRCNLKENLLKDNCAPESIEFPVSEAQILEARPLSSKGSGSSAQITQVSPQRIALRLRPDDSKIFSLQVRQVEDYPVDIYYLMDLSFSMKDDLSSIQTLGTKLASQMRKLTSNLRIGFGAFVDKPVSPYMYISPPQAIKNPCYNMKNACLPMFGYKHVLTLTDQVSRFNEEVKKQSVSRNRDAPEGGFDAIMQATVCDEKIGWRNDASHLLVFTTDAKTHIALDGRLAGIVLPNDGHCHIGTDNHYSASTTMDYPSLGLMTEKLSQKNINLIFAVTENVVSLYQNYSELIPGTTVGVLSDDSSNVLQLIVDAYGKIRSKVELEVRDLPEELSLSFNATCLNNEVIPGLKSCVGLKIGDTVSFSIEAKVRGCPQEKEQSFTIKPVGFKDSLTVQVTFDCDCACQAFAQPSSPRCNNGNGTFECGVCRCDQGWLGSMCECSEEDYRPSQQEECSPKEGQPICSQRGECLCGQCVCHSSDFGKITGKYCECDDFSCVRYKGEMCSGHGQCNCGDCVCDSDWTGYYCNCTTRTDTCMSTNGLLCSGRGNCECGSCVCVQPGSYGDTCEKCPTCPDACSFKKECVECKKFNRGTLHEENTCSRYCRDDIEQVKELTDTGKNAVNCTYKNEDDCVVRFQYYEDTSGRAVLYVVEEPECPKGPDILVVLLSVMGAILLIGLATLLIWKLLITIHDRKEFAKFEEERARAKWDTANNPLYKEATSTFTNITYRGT
UniProt P11688, sequence (P11688 45-1053, chain 1 of 2): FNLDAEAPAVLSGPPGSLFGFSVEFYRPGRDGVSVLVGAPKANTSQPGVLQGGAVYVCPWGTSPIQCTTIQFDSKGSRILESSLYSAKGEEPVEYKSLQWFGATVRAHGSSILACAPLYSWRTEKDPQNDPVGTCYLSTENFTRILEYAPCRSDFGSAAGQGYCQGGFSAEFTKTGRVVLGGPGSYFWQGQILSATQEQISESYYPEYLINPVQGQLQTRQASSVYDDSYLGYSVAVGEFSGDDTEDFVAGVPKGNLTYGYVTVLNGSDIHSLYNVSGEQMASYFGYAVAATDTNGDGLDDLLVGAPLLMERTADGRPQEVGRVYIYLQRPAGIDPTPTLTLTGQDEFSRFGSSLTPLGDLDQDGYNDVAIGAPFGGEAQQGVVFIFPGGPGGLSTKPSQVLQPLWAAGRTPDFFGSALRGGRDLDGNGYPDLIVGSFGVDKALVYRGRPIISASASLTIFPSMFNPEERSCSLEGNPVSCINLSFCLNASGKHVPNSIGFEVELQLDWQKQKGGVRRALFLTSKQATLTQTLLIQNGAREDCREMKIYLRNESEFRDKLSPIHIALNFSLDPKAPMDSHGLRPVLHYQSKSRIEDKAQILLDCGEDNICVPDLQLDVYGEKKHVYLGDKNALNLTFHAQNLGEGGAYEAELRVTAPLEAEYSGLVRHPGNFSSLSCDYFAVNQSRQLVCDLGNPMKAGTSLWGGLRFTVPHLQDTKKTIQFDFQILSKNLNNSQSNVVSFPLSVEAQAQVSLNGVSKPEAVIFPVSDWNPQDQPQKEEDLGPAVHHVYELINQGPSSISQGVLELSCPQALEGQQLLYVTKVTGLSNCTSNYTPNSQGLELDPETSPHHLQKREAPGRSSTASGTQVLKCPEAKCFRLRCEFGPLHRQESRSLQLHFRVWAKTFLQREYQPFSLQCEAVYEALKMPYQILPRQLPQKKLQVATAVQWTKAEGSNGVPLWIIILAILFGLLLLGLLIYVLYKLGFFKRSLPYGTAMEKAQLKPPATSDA
UniProt P11688, sequence (P09055 21-798, chain 2 of 2, further chain): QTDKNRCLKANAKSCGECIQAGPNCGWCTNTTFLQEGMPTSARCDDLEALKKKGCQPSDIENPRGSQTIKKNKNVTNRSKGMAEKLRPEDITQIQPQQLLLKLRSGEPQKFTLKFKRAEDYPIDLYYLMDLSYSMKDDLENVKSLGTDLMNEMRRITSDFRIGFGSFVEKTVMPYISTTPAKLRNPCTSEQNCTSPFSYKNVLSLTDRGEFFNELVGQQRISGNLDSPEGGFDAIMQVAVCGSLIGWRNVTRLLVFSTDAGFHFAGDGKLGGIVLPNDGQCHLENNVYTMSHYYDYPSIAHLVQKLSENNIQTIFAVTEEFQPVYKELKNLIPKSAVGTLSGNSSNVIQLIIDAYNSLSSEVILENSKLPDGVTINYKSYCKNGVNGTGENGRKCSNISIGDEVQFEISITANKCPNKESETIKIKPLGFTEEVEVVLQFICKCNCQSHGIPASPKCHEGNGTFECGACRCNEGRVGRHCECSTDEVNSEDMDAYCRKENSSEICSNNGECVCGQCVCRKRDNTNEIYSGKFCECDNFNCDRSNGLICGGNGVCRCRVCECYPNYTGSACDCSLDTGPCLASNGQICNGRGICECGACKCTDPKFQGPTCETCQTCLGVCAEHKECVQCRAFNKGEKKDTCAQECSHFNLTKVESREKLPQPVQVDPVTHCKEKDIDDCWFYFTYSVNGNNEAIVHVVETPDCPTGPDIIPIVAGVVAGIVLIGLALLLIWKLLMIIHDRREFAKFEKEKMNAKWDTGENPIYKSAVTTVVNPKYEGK

- binding rate (percent of cells positive) at 75 umol/L, unblocked cells that carry both integrins [1]: 70.7%
- binding rate (percent of cells positive) at 75 umol/L, unblocked cells that carry both integrins [2]: 70.7%
- binding rate (percent of cells positive) at 75 umol/L after block of αvβ3 and α5β1 together [3]: 0.01%
- binding rate (percent of cells positive) at 75 umol/L after block with an anti-αvβ3 antibody [3]: 1.4%
- binding rate (percent of cells positive) at 75 umol/L after block of αvβ3 and α5β1 together [4]: 0.01%
- binding rate (percent of cells positive) at 75 umol/L after block with an anti-α5β1 antibody [4]: 11.2%
Substance: HM-3-Fc fusion protein
